US20250361274A1, “PEPTIDE AND PEPTIDE-CONTAINING AGENT” (PEPTIDREAM INC., priority 2022, published 2025)
Numbered stars: 1 amine (or outer) side, 2 acyl side, 3 side chain; on linkers, the order of the positions; unused ones are H or OH. Bridge positions count the residues as written; N and C are the ends. Square brackets hold non-standard residues; d marks the D form. Ends that are not written are not given here. Hgn = (S)-2,6-diamino-6-oxohexanoic acid, NC(=O)CCC[C@H](N[*:1])C(=O)[*:2]; Ala(2-NH2-4-pyridyl) = Nc1cc(C[C@H](N)C(=O)O)ccn1; Bip = N[C@@H](Cc1ccc(-c2ccccc2)cc1)C(=O)O; Ala(cPent) = N[C@@H](CC1CCCC1)C(=O)O; NMeF = CN[C@@H](Cc1ccccc1)C(=O)O; Aad = N[C@@H](CCCC(=O)O)C(=O)O; Cha = N[C@@H](CC1CCCCC1)C(=O)O; Ahp(2) = CCCCC[C@H](N)C(=O)O; Chg = N[C@H](C(=O)O)C1CCCCC1; Abu = CC[C@H](N)C(=O)O

Key:
BMP4 = molecular target: T1, BMP4 (Homo sapiens, UniProt P12644); experiment: BMP4 signal transduction inhibitory activity: SMAD1 phosphorylation by BMP4 stimulus, AlphaLISA SureFire, A549 cells; type: cell-based; conditions: SMAD1 phosphorylation, BMP4 0.2 nM; peptide conc. in assay 0.2, 2, 20 nM
T1 sequence (P12644 293-408): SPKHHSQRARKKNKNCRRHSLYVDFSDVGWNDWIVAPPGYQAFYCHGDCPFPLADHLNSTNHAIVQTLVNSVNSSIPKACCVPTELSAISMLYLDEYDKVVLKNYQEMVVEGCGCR

BMP7 = molecular target: T2, BMP7 (Homo sapiens, UniProt P18075); experiment: BMP7 signal transduction inhibitory activity: SMAD1 phosphorylation by BMP7 stimulus, A549 cells; type: cell-based; conditions: SMAD1 phosphorylation, BMP7 10 nM; peptide conc. in assay 1, 10, 100 nM
T2 sequence (P18075 293-431): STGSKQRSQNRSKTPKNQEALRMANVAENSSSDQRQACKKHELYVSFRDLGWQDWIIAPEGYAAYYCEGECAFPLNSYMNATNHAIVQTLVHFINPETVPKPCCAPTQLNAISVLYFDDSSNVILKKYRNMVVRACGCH
Summary of the method: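 A549 cells were stimulated with 10 nM BMP7, and peptide inhibition of signalling was measured as SMAD1 phosphorylation. Peptides were tested at three concentrations, in sets ranging from 1–100 nM to 100–1,000 nM, or as eight-point 1/3 dilution series starting at 100 nM or 1,000 nM.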

Substance	aLISA BMP4 (0.2 nM) % inh (BMP4)	aLISA BMP7 (10 nM) % inh (BMP7)
332 (FG[NMeF]G[Bip]ADD[Cha]A[NMeF]LHCG-NH2; not fully specified (N-terminus, bridges)) [compound 332]	ND (the inhibitory activity was less than 30% at the maximum concentration evaluated)	D (showed less than 30% of inhibitory activity in 10 nM-addition zone and showed 30% or more of inhibitory activity in 100 nM-addition zone)
333 (FG[NMeF]G[Bip][dA]DD[Cha]A[NMeF]LHCG-NH2; not fully specified (N-terminus, bridges)) [compound 333]	ND (the inhibitory activity was less than 30% at the maximum concentration evaluated)	D (showed less than 30% of inhibitory activity in 10 nM-addition zone and showed 30% or more of inhibitory activity in 100 nM-addition zone)
334 (FG[NMeF]G[Bip]GND[Cha]A[NMeF]LHCG-NH2; not fully specified (N-terminus, bridges)) [compound 334]	ND (the inhibitory activity was less than 30% at the maximum concentration evaluated)	D (showed less than 30% of inhibitory activity in 10 nM-addition zone and showed 30% or more of inhibitory activity in 100 nM-addition zone)
335 (FG[NMeF]G[Bip]GDD[Ala(cPent)]A[NMeF]LHCG-NH2; not fully specified (N-terminus, bridges)) [compound 335]	ND (the inhibitory activity was less than 30% at the maximum concentration evaluated)	D (showed less than 30% of inhibitory activity in 10 nM-addition zone and showed 30% or more of inhibitory activity in 100 nM-addition zone)
336 (FG[NMeF]G[Bip]GDD[Cha]E[NMeF]LHCG-NH2; not fully specified (N-terminus, bridges)) [compound 336]	ND (the inhibitory activity was less than 30% at the maximum concentration evaluated)	D (showed less than 30% of inhibitory activity in 10 nM-addition zone and showed 30% or more of inhibitory activity in 100 nM-addition zone)
337 (FG[NMeF]G[Bip]GDD[Cha][Aad][NMeF]LHCG-NH2; not fully specified (N-terminus, bridges)) [compound 337]	ND (the inhibitory activity was less than 30% at the maximum concentration evaluated)	D (showed less than 30% of inhibitory activity in 10 nM-addition zone and showed 30% or more of inhibitory activity in 100 nM-addition zone)
338 ({CH2CO}-FG[NMeF]G[Bip]GDD[Cha][Ahp(2)][NMeF]LHCG-NH2; thioether N-14) [compound 338]	ND (the inhibitory activity was less than 30% at the maximum concentration evaluated)	D (showed less than 30% of inhibitory activity in 10 nM-addition zone and showed 30% or more of inhibitory activity in 100 nM-addition zone)
339 (FG[NMeF]G[Bip]GDD[Cha][Abu][NMeF]LHCG-NH2; not fully specified (N-terminus, bridges)) [compound 339]	ND (the inhibitory activity was less than 30% at the maximum concentration evaluated)	D (showed less than 30% of inhibitory activity in 10 nM-addition zone and showed 30% or more of inhibitory activity in 100 nM-addition zone)
340 (FG[NMeF]G[Bip]GDD[Cha]Q[NMeF]LHCG-NH2; not fully specified (N-terminus, bridges)) [compound 340]	ND (the inhibitory activity was less than 30% at the maximum concentration evaluated)	D (showed less than 30% of inhibitory activity in 10 nM-addition zone and showed 30% or more of inhibitory activity in 100 nM-addition zone)
341 (FG[NMeF]G[Bip]GDD[Cha]S[NMeF]LHCG-NH2; not fully specified (N-terminus, bridges)) [compound 341]	ND (the inhibitory activity was less than 30% at the maximum concentration evaluated)	D (showed less than 30% of inhibitory activity in 10 nM-addition zone and showed 30% or more of inhibitory activity in 100 nM-addition zone)
342 (FG[NMeF]G[Bip]GDD[Cha]T[NMeF]LHCG-NH2; not fully specified (N-terminus, bridges)) [compound 342]	ND (the inhibitory activity was less than 30% at the maximum concentration evaluated)	D (showed less than 30% of inhibitory activity in 10 nM-addition zone and showed 30% or more of inhibitory activity in 100 nM-addition zone)
343 (FG[NMeF]G[Bip]GDD[Cha][Hgn][NMeF]LHCG-NH2; not fully specified (N-terminus, bridges)) [compound 343]	ND (the inhibitory activity was less than 30% at the maximum concentration evaluated)	D (showed less than 30% of inhibitory activity in 10 nM-addition zone and showed 30% or more of inhibitory activity in 100 nM-addition zone)
344 (FG[NMeF]G[Bip]GDD[Cha]A[NMeF][Cha]HCG-NH2; not fully specified (N-terminus, bridges)) [compound 344]	A (showed less than 30% of inhibitory activity in 2 nM-peptide-addition zone and showed 30% or more of inhibitory activity in 20 nM-addition zone)	D (showed less than 30% of inhibitory activity in 10 nM-addition zone and showed 30% or more of inhibitory activity in 100 nM-addition zone)
345 (FG[NMeF]G[Bip]GDD[Cha]A[NMeF][Ahp(2)]HCG-NH2; not fully specified (N-terminus, bridges)) [compound 345]	A (showed less than 30% of inhibitory activity in 2 nM-peptide-addition zone and showed 30% or more of inhibitory activity in 20 nM-addition zone)	D (showed less than 30% of inhibitory activity in 10 nM-addition zone and showed 30% or more of inhibitory activity in 100 nM-addition zone)
346 (FG[NMeF]G[Bip]GDD[Cha]A[NMeF]IHCG-NH2; not fully specified (N-terminus, bridges)) [compound 346]	ND (the inhibitory activity was less than 30% at the maximum concentration evaluated)	D (showed less than 30% of inhibitory activity in 10 nM-addition zone and showed 30% or more of inhibitory activity in 100 nM-addition zone)
347 (FG[NMeF]G[Bip]GDD[Cha]A[NMeF][Chg]HCG-NH2; not fully specified (N-terminus, bridges)) [compound 347]	ND (the inhibitory activity was less than 30% at the maximum concentration evaluated)	D (showed less than 30% of inhibitory activity in 10 nM-addition zone and showed 30% or more of inhibitory activity in 100 nM-addition zone)
348 (FG[NMeF]G[Bip]GDD[Cha]A[NMeF]LACG-NH2; not fully specified (N-terminus, bridges)) [compound 348]	A (showed less than 30% of inhibitory activity in 2 nM-peptide-addition zone and showed 30% or more of inhibitory activity in 20 nM-addition zone)	D (showed less than 30% of inhibitory activity in 10 nM-addition zone and showed 30% or more of inhibitory activity in 100 nM-addition zone)
349 (FG[NMeF]G[Bip]GDD[Cha]A[NMeF]LLCG-NH2; not fully specified (N-terminus, bridges)) [compound 349]	ND (the inhibitory activity was less than 30% at the maximum concentration evaluated)	D (showed less than 30% of inhibitory activity in 10 nM-addition zone and showed 30% or more of inhibitory activity in 100 nM-addition zone)
350 (FG[NMeF]G[Bip]GDD[Cha]A[NMeF]L[Abu]CG-NH2; not fully specified (N-terminus, bridges)) [compound 350]	ND (the inhibitory activity was less than 30% at the maximum concentration evaluated)	D (showed less than 30% of inhibitory activity in 10 nM-addition zone and showed 30% or more of inhibitory activity in 100 nM-addition zone)
351 (FG[NMeF]G[Bip]GDD[Cha]A[NMeF]L[Ala(2-NH2-4-pyridyl)]CG-NH2; not fully specified (N-terminus, bridges); also: cyclic peptide, ring closure not given here) [compound 351]	ND (the inhibitory activity was less than 30% at the maximum concentration evaluated)	D (showed less than 30% of inhibitory activity in 10 nM-addition zone and showed 30% or more of inhibitory activity in 100 nM-addition zone)
352 (FG[NMeF]G[Bip]GDD[Cha]A[NMeF]LGCG-NH2; not fully specified (N-terminus, bridges); also: cyclic peptide, ring closure not given here) [compound 352]	ND (the inhibitory activity was less than 30% at the maximum concentration evaluated)	D (showed less than 30% of inhibitory activity in 10 nM-addition zone and showed 30% or more of inhibitory activity in 100 nM-addition zone)
353 (FG[NMeF]G[Bip]GDD[Cha]A[NMeF]LSCG-NH2; not fully specified (N-terminus, bridges); also: cyclic peptide, ring closure not given here) [compound 353]	ND (the inhibitory activity was less than 30% at the maximum concentration evaluated)	D (showed less than 30% of inhibitory activity in 10 nM-addition zone and showed 30% or more of inhibitory activity in 100 nM-addition zone)
